Source: patent publication US20250186594A1

Tests used:
[1] = target: Native IL-18 wild-type (SEQ ID NO: 1, native sequence) (human) (UniProt Q14116)
[2] = target: IL-18 variant SEQ ID NO: 57 (E6K, C38S, K53A) (human) (UniProt Q14116)
[3] = target: Native IL-18 wild-type (SEQ ID NO: 1, native sequence) (human) (UniProt Q14116); remark: listed apart in the source
[4] = target: IL-18 variant SEQ ID NO: 209 (F2A, V11I, C38A, K53A, C76A, C127A) (human) (UniProt Q14116); assay: cell-based or functional assay
IL-18 variant SEQ ID NO: 209 (F2A, V11I, C38A, K53A, C76A, C127A) (human), sequence (Q14116 other isoform, or with tags, fused parts or gaps V11I C38A K53A C76A C127A V11I C38A K53A C76A C127A): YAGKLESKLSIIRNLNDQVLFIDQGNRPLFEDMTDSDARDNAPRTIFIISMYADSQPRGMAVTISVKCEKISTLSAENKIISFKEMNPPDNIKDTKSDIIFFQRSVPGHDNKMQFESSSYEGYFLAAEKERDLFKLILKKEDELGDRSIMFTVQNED

[5] = target: IL-18 variant SEQ ID NO: 212 (V11I, D35A, C38A, K53A, C76A, C127A) (human) (UniProt Q14116); assay: cell-based or functional assay
IL-18 variant SEQ ID NO: 212 (V11I, D35A, C38A, K53A, C76A, C127A) (human), sequence (Q14116 37-193 V47I/D71A/C74A/K89A/C112A/C163A): as the sequence (Q14116 other isoform, or with tags, fused parts or gaps V11I C38A K53A C76A C127A V11I C38A K53A C76A C127A) above, with A2F, D35A counted along it

[6] = target: IL-18 variant SEQ ID NO: 214 (V11I, D37A, C38A, K53A, C76A, C127A) (human) (UniProt Q14116); assay: cell-based or functional assay
IL-18 variant SEQ ID NO: 214 (V11I, D37A, C38A, K53A, C76A, C127A) (human), sequence (Q14116 37-193 V47I/D73A/C74A/K89A/C112A/C163A): as the sequence (Q14116 other isoform, or with tags, fused parts or gaps V11I C38A K53A C76A C127A V11I C38A K53A C76A C127A) above, with A2F, D37A counted along it

[7] = target: IL-18 variant SEQ ID NO: 217 (V11I, C38A, N41A, K53A, C76A, C127A) (human) (UniProt Q14116); assay: cell-based or functional assay
IL-18 variant SEQ ID NO: 217 (V11I, C38A, N41A, K53A, C76A, C127A) (human), sequence (Q14116 37-193 V47I/C74A/N77A/K89A/C112A/C163A): as the sequence (Q14116 other isoform, or with tags, fused parts or gaps V11I C38A K53A C76A C127A V11I C38A K53A C76A C127A) above, with A2F, N41A counted along it

[8] = target: IL-18 variant SEQ ID NO: 218 (V11I, C38A, K53A, C76A, C127A, D132A) (human) (UniProt Q14116); assay: cell-based or functional assay
IL-18 variant SEQ ID NO: 218 (V11I, C38A, K53A, C76A, C127A, D132A) (human), sequence (Q14116 37-193 V47I/C74A/K89A/C112A/C163A/D168A): as the sequence (Q14116 other isoform, or with tags, fused parts or gaps V11I C38A K53A C76A C127A V11I C38A K53A C76A C127A) above, with A2F, D132A counted along it

[9] = target: IL-18 variant SEQ ID NO: 219 (V11I, C38A, K53A, C76A, G108A, C127A) (human) (UniProt Q14116); assay: cell-based or functional assay
IL-18 variant SEQ ID NO: 219 (V11I, C38A, K53A, C76A, G108A, C127A) (human), sequence (Q14116 37-193 V47I/C74A/K89A/C112A/G144A/C163A): as the sequence (Q14116 other isoform, or with tags, fused parts or gaps V11I C38A K53A C76A C127A V11I C38A K53A C76A C127A) above, with A2F, G108A counted along it

[10] = target: IL-18 variant SEQ ID NO: 222 (K8R, V11I, C38A, C76A, Q103E, C127A) (human) (UniProt Q14116); assay: cell-based or functional assay
IL-18 variant SEQ ID NO: 222 (K8R, V11I, C38A, C76A, Q103E, C127A) (human), sequence (Q14116 other isoform, or with tags, fused parts or gaps V11I C38A C76A Q103E C127A V11I C38A C76A Q103E C127A): as the sequence (Q14116 other isoform, or with tags, fused parts or gaps V11I C38A K53A C76A C127A V11I C38A K53A C76A C127A) above, with A2F, K8R, A53K, Q103E counted along it

[11] = target: IL-18 variant SEQ ID NO: 223 (K8E, V11I, C38A, C76A, Q103R, C127A) (human) (UniProt Q14116); assay: cell-based or functional assay
IL-18 variant SEQ ID NO: 223 (K8E, V11I, C38A, C76A, Q103R, C127A) (human), sequence (Q14116 other isoform, or with tags, fused parts or gaps V11I C38A C76A Q103R C127A V11I C38A C76A Q103R C127A): as the sequence (Q14116 other isoform, or with tags, fused parts or gaps V11I C38A K53A C76A C127A V11I C38A K53A C76A C127A) above, with A2F, K8E, A53K, Q103R counted along it

[12] = target: IL-18 variant SEQ ID NO: 225 (V11I, C38A, S55H, C76A, C127A) (human) (UniProt Q14116); assay: cell-based or functional assay
IL-18 variant SEQ ID NO: 225 (V11I, C38A, S55H, C76A, C127A) (human), sequence (Q14116 37-193 V47I/C74A/S91H/C112A/C163A): as the sequence (Q14116 other isoform, or with tags, fused parts or gaps V11I C38A K53A C76A C127A V11I C38A K53A C76A C127A) above, with A2F, A53K, S55H counted along it

[13] = target: IL-18 variant SEQ ID NO: 227 (V11I, C38A, S55T, C76A, C127A) (human) (UniProt Q14116); assay: cell-based or functional assay
IL-18 variant SEQ ID NO: 227 (V11I, C38A, S55T, C76A, C127A) (human), sequence (Q14116 37-193 V47I/C74A/S91T/C112A/C163A): as the sequence (Q14116 other isoform, or with tags, fused parts or gaps V11I C38A K53A C76A C127A V11I C38A K53A C76A C127A) above, with A2F, A53K, S55T counted along it

[14] = target: IL-18 variant SEQ ID NO: 28 (E6K, C38A, K53A, T63A, C76A, C127A) (human) (UniProt Q14116); assay: cell-based or functional assay
IL-18 variant SEQ ID NO: 28 (E6K, C38A, K53A, T63A, C76A, C127A) (human), sequence (Q14116 other isoform, or with tags, fused parts or gaps C38A K53A T63A C76A C127A C38A K53A T63A C76A C127A): as the sequence (Q14116 other isoform, or with tags, fused parts or gaps V11I C38A K53A C76A C127A V11I C38A K53A C76A C127A) above, with A2F, E6K, I11V, T63A counted along it

[15] = target: IL-18 variant SEQ ID NO: 28 with 30 kDa PEG (E6K, C38A, K53A, T63A, C76A, C127A, C68-30kPEG) (human) (UniProt Q14116); assay: cell-based or functional assay
IL-18 variant SEQ ID NO: 28 with 30 kDa PEG (E6K, C38A, K53A, T63A, C76A, C127A, C68-30kPEG) (human), sequence (Q14116 other isoform, or with tags, fused parts or gaps C38A K53A T63A C76A C127A C38A K53A T63A C76A C127A): as the sequence (Q14116 other isoform, or with tags, fused parts or gaps V11I C38A K53A C76A C127A V11I C38A K53A C76A C127A) above, with A2F, E6K, I11V, T63A counted along it

[16] = target: IL-18 variant SEQ ID NO: 30 (E6K, V11I, C38A, K53A, T63A, C76A, C127A) (human) (UniProt Q14116); assay: cell-based or functional assay
IL-18 variant SEQ ID NO: 30 (E6K, V11I, C38A, K53A, T63A, C76A, C127A) (human), sequence (Q14116 other isoform, or with tags, fused parts or gaps with the stated changes): as the sequence (Q14116 other isoform, or with tags, fused parts or gaps V11I C38A K53A C76A C127A V11I C38A K53A C76A C127A) above, with A2F, E6K, T63A counted along it

[17] = target: IL-18 variant SEQ ID NO: 30 with 10 kDa PEG (E6K, V11I, C38A, K53A, T63A, C76A, C127A, C68-10kPEG) (human) (UniProt Q14116); assay: cell-based or functional assay
IL-18 variant SEQ ID NO: 30 with 10 kDa PEG (E6K, V11I, C38A, K53A, T63A, C76A, C127A, C68-10kPEG) (human), sequence (Q14116 other isoform, or with tags, fused parts or gaps with the stated changes): as the sequence (Q14116 other isoform, or with tags, fused parts or gaps V11I C38A K53A C76A C127A V11I C38A K53A C76A C127A) above, with A2F, E6K, T63A counted along it

[18] = target: IL-18 variant SEQ ID NO: 30 with 20 kDa PEG (E6K, V11I, C38A, K53A, T63A, C76A, C127A, C68-20kPEG) (human) (UniProt Q14116); assay: cell-based or functional assay
IL-18 variant SEQ ID NO: 30 with 20 kDa PEG (E6K, V11I, C38A, K53A, T63A, C76A, C127A, C68-20kPEG) (human), sequence (Q14116 other isoform, or with tags, fused parts or gaps with the stated changes): as the sequence (Q14116 other isoform, or with tags, fused parts or gaps V11I C38A K53A C76A C127A V11I C38A K53A C76A C127A) above, with A2F, E6K, T63A counted along it

[19] = target: IL-18 variant SEQ ID NO: 30 with 30 kDa PEG (E6K, V11I, C38A, K53A, T63A, C76A, C127A, C68-30kPEG) (human) (UniProt Q14116); assay: cell-based or functional assay
IL-18 variant SEQ ID NO: 30 with 30 kDa PEG (E6K, V11I, C38A, K53A, T63A, C76A, C127A, C68-30kPEG) (human), sequence (Q14116 other isoform, or with tags, fused parts or gaps with the stated changes): as the sequence (Q14116 other isoform, or with tags, fused parts or gaps V11I C38A K53A C76A C127A V11I C38A K53A C76A C127A) above, with A2F, E6K, T63A counted along it

[20] = target: IL-18 variant SEQ ID NO: 5 with 30 kDa PEG (E6K, V11I, C38A, K53A, T63A, C68A, C76A, C127A, M86C-30kPEG) (human) (UniProt Q14116); assay: cell-based or functional assay
IL-18 variant SEQ ID NO: 5 with 30 kDa PEG (E6K, V11I, C38A, K53A, T63A, C68A, C76A, C127A, M86C-30kPEG) (human), sequence (Q14116 other isoform, or with tags, fused parts or gaps with the stated changes): as the sequence (Q14116 other isoform, or with tags, fused parts or gaps V11I C38A K53A C76A C127A V11I C38A K53A C76A C127A) above, with A2F, E6K, T63A, C68A, M86C counted along it

[21] = target: IL-18 variant SEQ ID NO: 57 (E6K, C38S, K53A) (human) (UniProt Q14116); assay: cell-based or functional assay
[22] = target: IL-18 variant SEQ ID NO: 6 with 30 kDa PEG (E6K, V11I, C38A, K53A, T63A, C68A, C76A, C127A, D98C-30kPEG) (human) (UniProt Q14116); assay: cell-based or functional assay
[23] = target: IL-18 variant SEQ ID NO: 60 (E6K, C38Q, K53A) (human) (UniProt Q14116); assay: cell-based or functional assay
IL-18 variant SEQ ID NO: 60 (E6K, C38Q, K53A) (human), sequence (Q14116 other isoform, or with tags, fused parts or gaps C38Q K53A C38Q K53A): as the sequence (Q14116 other isoform, or with tags, fused parts or gaps V11I C38A K53A C76A C127A V11I C38A K53A C76A C127A) above, with A2F, E6K, I11V, A38Q, A76C, A127C counted along it

[24] = target: IL-18 variant SEQ ID NO: 60 with 30 kDa PEG (E6K, C38Q, K53A, C68-30kPEG) (human) (UniProt Q14116); assay: cell-based or functional assay
IL-18 variant SEQ ID NO: 60 with 30 kDa PEG (E6K, C38Q, K53A, C68-30kPEG) (human), sequence (Q14116 other isoform, or with tags, fused parts or gaps C38Q K53A C38Q K53A): as the sequence (Q14116 other isoform, or with tags, fused parts or gaps V11I C38A K53A C76A C127A V11I C38A K53A C76A C127A) above, with A2F, E6K, I11V, A38Q, A76C, A127C counted along it

[25] = target: IL-18 variant SEQ ID NO: 61 (E6K, C38A, K53A, C76A) (human) (UniProt Q14116); assay: cell-based or functional assay
IL-18 variant SEQ ID NO: 61 (E6K, C38A, K53A, C76A) (human), sequence (Q14116 other isoform, or with tags, fused parts or gaps C38A K53A C76A C38A K53A C76A): as the sequence (Q14116 other isoform, or with tags, fused parts or gaps V11I C38A K53A C76A C127A V11I C38A K53A C76A C127A) above, with A2F, E6K, I11V, A127C counted along it

[26] = target: IL-18 variant SEQ ID NO: 61 with 30 kDa PEG (E6K, C38A, K53A, C76A, C68-30kPEG) (human) (UniProt Q14116); assay: cell-based or functional assay
IL-18 variant SEQ ID NO: 61 with 30 kDa PEG (E6K, C38A, K53A, C76A, C68-30kPEG) (human), sequence (Q14116 other isoform, or with tags, fused parts or gaps C38A K53A C76A C38A K53A C76A): as the sequence (Q14116 other isoform, or with tags, fused parts or gaps V11I C38A K53A C76A C127A V11I C38A K53A C76A C127A) above, with A2F, E6K, I11V, A127C counted along it

[27] = target: IL-18 variant SEQ ID NO: 62 (E6K, C38A, K53A, C127A) (human) (UniProt Q14116); assay: cell-based or functional assay
IL-18 variant SEQ ID NO: 62 (E6K, C38A, K53A, C127A) (human), sequence (Q14116 other isoform, or with tags, fused parts or gaps C38A K53A C127A C38A K53A C127A): as the sequence (Q14116 other isoform, or with tags, fused parts or gaps V11I C38A K53A C76A C127A V11I C38A K53A C76A C127A) above, with A2F, E6K, I11V, A76C counted along it

[28] = target: IL-18 variant SEQ ID NO: 62 with 30 kDa PEG (E6K, C38A, K53A, C127A, C68-30kPEG) (human) (UniProt Q14116); assay: cell-based or functional assay
IL-18 variant SEQ ID NO: 62 with 30 kDa PEG (E6K, C38A, K53A, C127A, C68-30kPEG) (human), sequence (Q14116 other isoform, or with tags, fused parts or gaps C38A K53A C127A C38A K53A C127A): as the sequence (Q14116 other isoform, or with tags, fused parts or gaps V11I C38A K53A C76A C127A V11I C38A K53A C76A C127A) above, with A2F, E6K, I11V, A76C counted along it

[29] = target: IL-18 variant SEQ ID NO: 8 (E6K, V11I, C38A, K53A, T63A, C68A, C76A, T95C, C127A) (human) (UniProt Q14116); assay: cell-based or functional assay
IL-18 variant SEQ ID NO: 8 (E6K, V11I, C38A, K53A, T63A, C68A, C76A, T95C, C127A) (human), sequence (Q14116 other isoform, or with tags, fused parts or gaps with the stated changes): as the sequence (Q14116 other isoform, or with tags, fused parts or gaps V11I C38A K53A C76A C127A V11I C38A K53A C76A C127A) above, with A2F, E6K, T63A, C68A, T95C counted along it

[30] = target: Native IL-18 wild-type (SEQ ID NO: 1, native sequence) (human) (UniProt Q14116); assay: cell-based or functional assay

Native IL-18 wild-type (SEQ ID NO: 1, native sequence) (human), sequence (Q14116 37-193): as the sequence (Q14116 other isoform, or with tags, fused parts or gaps V11I C38A K53A C76A C127A V11I C38A K53A C76A C127A) above, with A2F, I11V, A38C, A53K, A76C, A127C counted along it
IL-18 variant SEQ ID NO: 57 (E6K, C38S, K53A) (human), sequence (Q14116 other isoform, or with tags, fused parts or gaps C38S K53A C38S K53A): as the sequence (Q14116 other isoform, or with tags, fused parts or gaps V11I C38A K53A C76A C127A V11I C38A K53A C76A C127A) above, with A2F, E6K, I11V, A38S, A76C, A127C counted along it

Question: Which results are given for “Fc fused human IL-18BP isoform a (IL-18BPa) (from UniProt O95998 31-194) (Fc fusion)”?
Answer: IC50 (read off the curve); IFNγ production in the NK-92 assay (IFNg, ng/mL) [1]: 1 nM; IC50 (read off the curve); IFNγ secretion by NK-92 cells (IFNg AlphaLISA signal, 615 nM) [2]: 200 nM; IC50 (read off the curve); IFNγ secretion by NK-92 cells (IFNg AlphaLISA signal, 615 nM) [3]: 0.9 nM; IC50 of IL-18BPa-Fc on IFNγ secretion, NK-92 [4]: 5.05 nM; IC50 of IL-18BPa-Fc on IFNγ secretion, NK-92 [5]: 3.62 nM; IC50 of IL-18BPa-Fc on IFNγ secretion, NK-92 [6]: 2.22 nM; IC50 of IL-18BPa-Fc on IFNγ secretion, NK-92 [7]: 0.681 nM; IC50 of IL-18BPa-Fc on IFNγ secretion, NK-92 [8]: 6.08 nM; IC50 of IL-18BPa-Fc on IFNγ secretion, NK-92 [9]: 3.98 nM; IC50 of IL-18BPa-Fc on IFNγ secretion, NK-92 [10]: 1.07 nM; IC50 of IL-18BPa-Fc on IFNγ secretion, NK-92 [11]: 7.29 nM; IC50 of IL-18BPa-Fc on IFNγ secretion, NK-92 [12]: 0.456 nM; IC50 of IL-18BPa-Fc on IFNγ secretion, NK-92 [13]: 0.44 nM; IC50 of IL-18BPa-Fc on IFNγ secretion, NK-92 [14]: 233 nM; IC50 of IL-18BPa-Fc on IFNγ secretion, NK-92 [15]: 12.2 nM; IC50 of IL-18BPa-Fc on IFNγ secretion, NK-92 [16]: 488 nM; IC50 of IL-18BPa-Fc on IFNγ secretion, NK-92 [17]: 67.1 nM; IC50 of IL-18BPa-Fc on IFNγ secretion, NK-92 [18]: 44.2 nM; IC50 of IL-18BPa-Fc on IFNγ secretion, NK-92 [19]: 34.3 nM; IC50 of IL-18BPa-Fc on IFNγ secretion, NK-92 [20]: 32.5 nM; IC50 of IL-18BPa-Fc on IFNγ secretion, NK-92 [21]: 146 nM; IC50 of IL-18BPa-Fc on IFNγ secretion, NK-92 [22]: 35.5 nM; IC50 of IL-18BPa-Fc on IFNγ secretion, NK-92 [23]: 829 nM; IC50 of IL-18BPa-Fc on IFNγ secretion, NK-92 [24]: 28.1 nM; IC50 of IL-18BPa-Fc on IFNγ secretion, NK-92 [25]: 779 nM; IC50 of IL-18BPa-Fc on IFNγ secretion, NK-92 [26]: 4.29 nM; IC50 of IL-18BPa-Fc on IFNγ secretion, NK-92 [27]: 284 nM; IC50 of IL-18BPa-Fc on IFNγ secretion, NK-92 [28]: 4.83 nM; IC50 of IL-18BPa-Fc on IFNγ secretion, NK-92 [29]: 522 nM; IC50 of IL-18BPa-Fc on IFNγ secretion, NK-92 [30]: 0.781 nM
